Data: a protein production outcome set (Wang et al. 2014)

Experiment: label from the status in PepcDB records
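Note: failed if final PepcDB status was selected cloned or expressed and not failed if soluble or beyond.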

Row | Sequence | protein production
1 | MAAAVSTVGAINRAPLSLNGSGSGAVSAPASTFLGKKVVTVSRFAQSNKKSNGSFKVLAVKEDKQTDGDRWRGLAYDTSDDQQDITRGKGMVDSVFQAPMGTGTHHAVLSSYEYVSQGLRQYNLDNMMDGFYIAPAFMDKLVVHITKNFLTLPNIKVPLILGIWGGKGQGKSFQCELVMAKMGINPIMMSAGELESGNAGEPAKLIRQRYREAADLIKKGKMCCLFINDLDAGAGRMGGTTQYTVNNQMVNATLMNIADNPTNVQLPGMYNKEENARVPIICTGNDFSTLYAPLIRDGRMEKFYWAPTREDRIGVCKGIFRTDKIKDEDIVTLVDQFPGQSIDFFGALRARVYDDEVRKFVESLGVEKIGKRLVNSREGPPVFEQPEMTYEKLMEYGNMLVMEQENVKRVQLAETYLSQAALGDANADAIGRGTFYGKGAQQVNLPVPEGCTDPVAENFDPTARSDDGTCVYNF | failed
2 | MPINFHDANNKYTYAQRNAHISWREMIKSITSIQNKRIVDIGCGGGIYTKELALMGAKSVVGIDFSKEILQAAKENCSGFSNISFIHGDAHSTPYPNDTFDIVISRAVIHHLQDIPTFLREASRILKKNGVLIVQDRTIEDCTIPGSPEHIRGYFFSTFPKLIETESKRRPKTTTIQQELQKYFLHVFPTQTQWEVRKIHDSVEALLQDLSPRTGRSILYELTDYELSQLLQQVQTALQNVSPIIEKDRWTIWSAMKL | failed
3 | MQDLGIAFQTAVGDSGGNLDGRTPLPSNDWLMKRNCSLTPRQAGWFYFSIVCFSTAIAVFFAVWLGAWLVLPFAGLELLGLGIALLAYARHAADYERVSVTDGMLVVETASASRITREVFNPRWVRVELGESFRAPVVLRSDKRSVQVGLYLDPYRRRKFAQELAVALQRV | failed
4 | MDPCTGGNGCVHICQSENGTARCACHAGYQLPEDKNICEDINECAEGLSYCGHCCVNSMGSFTCACQTGFELGADRKQCYSNWQQSQPRLYLSLSDFFLLFPVHDYTLPGIELEIVNSCEKNNSVCSHHREHEIGAPRCSCNHGHQLDSDEKTCIDLDECENGEACCAQLCINYLGGYKCRCQEGFQITSNGCECDALDDDELEEEEEE | failed
5 | MLNKTASYSEIEMSVVVPKDSKITNIEAVSKLAAPVKNDTSNITDLIEHIKSEKGISITPQKTDSYQDAYNRIKSGDSQAMVLNNAYVSLIELSTPDFKSQIKTIYTYKIKKKINRKNTNHKEGVFNIYISGIDTFGSISTVSRSDVNIIMTVNTNTHKVLLTTTPRDAYVKIPDGGGNQYDKLTHAGLYGVETSMKTLENLYDINLDYYARINFSSFLKLIDLLGGVTVYNDQAFTSKHGNFDFPVGQVTLNSEQALGFVRERYSLQGGDNDRGRNQEKVIAAIINKLASSQSVTKLNSITSQLQTSVQTNMTIDNINDLINNQLSTGQRFTVESQALTGHGSTGELPSYAMPGAQLYMMSIDQSSLSNAKSKIKNTMEELEHHHHHH | not failed
6 | MRNLRKDIVSRSSVGSIQIHGAKTHNLRDVTVCIPKHALVGVAGVSGSGKTSLVSTLAVGAQQAVSSLFPAFVQARLNTLEPGLVDGLQGLTFTAIVGQKKFSRNARSSVSTASGIAPYLRLLFSRSGSPSAGYSPSYSPNDPRGMCMDCSGLGYVDDIDLQELIAPDRSLNEGAVRFPSFEPGTYRWKRLVCSGLFDPDVPWKELPEASRKLLLHGQGVRLERPLTGYPKHGIFDGIIPRLKASYLEKANAKTTEKEDAALRRIVKRVVCPHCHGQRINEAARASRIEGLNIAEASHLSIDECIAFIKTITDEITEAPRQAVLARLNNMRDIGLGYLSLDRPTDTLSGGEAQRLRLVSLLDAPITDATFVMDEPSSGLHPADIERLLRSLRKLRDSGNTVIIVEHNLQVLAACDHVVELGPGAGDDGGRVLFEGSPRSLTRSDTPTGKALRAGIQLNRRSRPATDVIEVTHARCNNLGDVSVSFPVGALTVVSGVAGSGKSSLASALAQQHPEVTIIDQLPLAASSRSSILTALGLESPIREAFSKISGLTTSWFSANEKGACPLCKGRGTTHVDMAFMDDVQTPCERCGGRKFNETTMAVRLPMGSLNPTIADVLDSGLNQVSELYATQDDVLTVISLLQQVGLGYLTLGRTLNTLSGGELQRIKLVQFLKEHREEQESVLVLDEITTGLHPKDVEQLIQFLRRLSERGATAIAIDHNPGLISQADYNIDLGPGAEAAGGTVVFSGTAQGLADCPESTTGKWLHKLNCSSSGVEQVP | failed
7 | TFSYLAETDYPVFTLGGSTADAARRLAASGCACAPVLDGERYLGMVHLSRLLEGRKGWPTVKEKLGEELLETVRSYRPGEQLFDNLISVAAAKCSVVPLADEDGRYEGVVSRKRILGFLAERI | failed
8 | NTAPSLTVPECAICLQTCVHPVSLPCKHVFCYLCVKGASWLGKRCALCRQEIPEDFLD | not failed
9 | MKTDFSLTQLADPDIAEADKILRACVHCGFCTATCPTYVLLGDELDSPRGRIYLIKEMLESDKPPTADVVKHIDRCLSCLACMTTCPSGVNYMHLVDQARVRIEKQYQRPFWDRVVREALSWMMPHPGMFRLGMWAARIVRPVAALLPGSHNLTHPTLLSRIKAMLALAPKHLPEPGPDSGTTFPAVGPKRGRVALLHGCAQQVLAPRINRAAINLLTRHGIEVVLAADEACCGALIHHLGRDTRTLEYARTNIKAWLAEIERGGLDAILVTTSGCGTVIKDYGYMLREDPEYAAAAAKVSALAKDISEYVSGLELSLPRPHDDVVVAYHSACSLQHGQKITQIPKELLSKTGFVVKDIPESHLCCGSAGTYNILQPDIATRLRDRKVANIASVKPDMIAAGNIGCMVQIASGTEVPVVHTIELLDWATGGPRPAPH | failed
10 | MTTNRYMKGIMWAMLASTLWGVSGTVMQFVSQNQAIPADWFLSVRTLSAGIILLAIGFVQQGTKIFKVFRSWASVGQLVAYATVGLMANMYTFYISIERGTAAAATILQYLSPLFIVLGTLLFKRELPLRTDLIAFAVSLLGVFLAITKGNIHELAIPMDALVWGILSGVTAALYVVLPRKIVAENSPVVILGWGTLIAGILFNLYHPIWIGAPKITPTLVTSIGAIVLIGTIFAFLSLLHSLQYAPSAVVSIVDAVQPVVTFVLSIIFLGLQVTWVEILGSLLVIVAIYILQQYRSDPASD | failed
11 | MIAVISMSGHVWSQQVPLWSIIIRTIHLIGLTLWLGSLVYLICYAIKVKINQLTSVRRMLLKVNIIAVFMLVFTGILMAIDETNTLTLWNNVSAWSIYLVIKIAGIITMMLLGFYQTMRALRQRQQVHRFALMTELLIGMILIFAGIMMSK | failed
12 | MEYHLRTKLNGNIAMTSCFHENSFLQCDRSLYKFIWVRHGALDVEVDHVVMHLEKEEMISLTPLHHVQIRGVDGEYLTFLFNSNFYCIYGHDSEVSCNGFLFNGSSRVMRLKLSPSQSARLDSIVDIFRGECGIQDNLQEEMLRIILKRFIITCTRIAREKFDVDPGRENMFDVIRQFYVLVDSHFKEKKQVQDYADMLCRSPKTISNLFSLYGLSSPLRVIHERVDAEAKRLLLYTGKSAKEISEILGFEDLATFSRFFKKMNKESLSEYRKREKRE | not failed
13 | MSKRWLYSLQLIFFITLVFVLVTGCYSHPNQNIQSANSKPVTSECRIIKHPLGETCIPLHPQRIIAMDEDILEILVALDLKPIAVAINFDEWSSREKQLWQKAEGIDSIVIGNHGILNLEKMLLLKPDLILGLAESTDRKSYELFSQIAPTVTVDYAQTAWRDVLLRVGNIIGKTEQAQKLIAEFQQRIEKLRVIVKNKLGKTKISVVRVYNYFHKTIEFRSNFSFPGSLLVELGLSFPEKQNQIPTSPGFPFVFASLERLDLLDADVMFVTLDAGGEENFKKFQASPLWQKLKAVKNNCVYTVDSGYWIFGNIMSANAILDDLDKYLLQQCR | failed
14 | CDLERYPLTDLSEETFWNSESNAELALTSLYRGSLTDGVEYNPSDWWSYHGMIMMEHLSDNAFDRRGENNPFFKISSGNLTADNAFIKRYWETSYKRIGYCNRFLVGIQNSSESEKKTRMIAEARFLRATQYFYLASYFKNVPLVENVLTGEEANNVTKTSQADILKWCVTEFTAAAADLPRFSAIPAGEAGRACKQAALAFLGRTCMLQKDWKSGAKAFHDIMELGDNAINANYQELFYPSTGTSNKENIFYIQYLENYLGTGLPQHALSAKDGGWSLVNPAADLYESYEFKDGTPFSYDDPRYDPSNLGKDRDPRLDYTIYYNGAIFMGTEYKMSPDYSAAKKEKLDYTSEASRTGFMMRKYFEESTPINDVQSANGLTPVIRYAEVLLGYLECLVEDNQTITQGILDETINAVRGRASVNMPPVTEVTPAKLREIVRHERRIELAMEGIRYWDIMRWGIAHEVLSQKIWGAPYPGSTQYATTTKEVDPTGNYRWYVGKRAFRNPTDYTWPIPQSEQNINPNLRD | not failed
